Here are results for six molecules from patent publication US20230190901A1 (published 2023).

Numbering of substitutions follows the chain as printed.

For experiment [1], the target named is T1, MAGEC2 peptide on HLA-A*02 (human).
T1 peptide: ALIEVGPDHFCV
The experiment is described as follows: binding, other.

The target of experiment [2] is T2, MAGEC2 peptide on HLA-A*02 (human).
T2 peptide: FVYGEPREL
The experiment can be described thus: binding, other.

B1: TCR of SEQ ID NOs 30 and 31 (TCR, V domains shown)
Valpha: KQEVTQIPAALSVPEGENLVLNCSFTDSAIYNLQWFRQDPGKGLTSLLLIQSSQREQTSGRLNASLDKSSGRSTLYIAASQPGDSATYLCAVNEGSNYKLTFGKGTLLTVNP
Vbeta: NAGVTQTPKFRILKIGQSMTLQCTQDMNHNYMYWYRQDPGMGLKLIYYSVGAGITDKGEVPNGYNVSRSTTEDFPLRLELAAPSQTSVYFCASSYSSPHYGYTFGSGTRLTVV
For the molecule B1, the binding result in experiment [1] is given as “recognises”.

B2: TCR of SEQ ID NOs 36 and 37 (TCR, V domains shown)
Valpha: KQEVTQIPAALSVPEGENLVLNCSFTDSAIYNLQWFRQDPGKGLTSLLLIQSSQREQTSGRLNASLDKSSGRSTLYIAASQPGDSATYLCAVTGGTSYGKLTFGQGTILTVHP
Vbeta: NAGVTQTPKFRILKIGQSMTLQCTQDMNHNYMYWYRQDPGMGLKLIYYSVGAGITDKGEVPNGYNVSRSTTEDFPLRLELAAPSQTSVYFCASSYWAGVLTEAFFGQGTRLTVV
In the case of B2, the binding result in experiment [2] was “recognises”.

B3: TCR of SEQ ID NOs 34 and 35 (TCR, V domains shown)
Valpha: KQEVTQIPAALSVPEGENLVLNCSFTDSAIYNLQWFRQDPGKGLTSLLLIQSSQREQTSGRLNASLDKSSGRSTLYIAASQPGDSATYLCAVTGNTPLVFGKGTRLSVIA
Vbeta: NAGVTQTPKFQVLKTGQSMTLQCAQDMNHEYMSWYRQDPGMGLRLIHYSVGAGITDQGEVPNGYNVSRSTTEDFPLRLLSAAPSQTSVYFCASSYSPYYEQYFGPGTRLTVT
Take B3: the binding result in experiment [2] is recorded as “recognises”.

B4: TCR of SEQ ID NOs 28 and 29 (TCR, V domains shown)
Valpha: KQEVTQIPAALSVPEGENLVLNCSFTDSAIYNLQWFRQDPGKGLTSLLLIQSSQREQTSGRLNASLDKSSGRSTLYIAASQPGDSATYLCAVKGRGTYKYIFGTGTRLKVLA
Vbeta: NAGVTQTPKFRVLKTGQSMTLQCAQDMNHNSMYWYRQDPGMGLRLIYYSASEGTTDKGEVPNGYNVSRLNKREFSLRLESAAPSQTSVYFCASSYYGGSGAGYEQYFGPGTRLTVT
As to B4, the binding result in experiment [1] is “recognises”.

B5: TCR of SEQ ID NOs 26 and 27 (TCR, V domains shown)
Valpha: KQEVTQIPAALSVPEGENLVLNCSFTDSAIYNLQWFRQDPGKGLTSLLLIQSSQREQTSGRLNASLDKSSGRSTLYIAASQPGDSATYLCAVVDSWGKLQFGAGTQVVVTP
Vbeta: NAGVTQTPKFQVLKTGQSMTLQCAQDMNHNSMYWYRQDPGMGLRLIHYSVGAGITDQGEVPNGYNVSRSTTEDFPLRLLSAAPSQTSVYFCASSPWGGATEAFFGQGTRLTVV
Turning to B5, the binding result in experiment [1] was “recognises”.

B6: TCR of SEQ ID NOs 32 and 33 (TCR, V domains shown)
Valpha: B5 Valpha with V93R, D94E, S95W, W96D, G97A, K98R, Q100M, A103D, V107L, T110K
Vbeta: NAGVTQTPKFQVLKTGQSMTLQCAQDMNHNSMYWYRQDPGMGLRLIYYSASEGTTDKGEVPNGYNVSRLNKREFSLRLESAAPSQTSVYFCASSLLRGWTEAFFGQGTRLTVV
Consider B6, for which the binding result in experiment [2] is given as “recognises”.
